Test results reported in patent US20030157554A1 (published 2003).

Assays:
S100B-1 = molecular target: T1, S100B-1 (human, UniProt P04271 1-92); assay: Y2H, baits tested against each other
T1 construct: Full-length bait; also called full length S100B
T1 sequence (looked up): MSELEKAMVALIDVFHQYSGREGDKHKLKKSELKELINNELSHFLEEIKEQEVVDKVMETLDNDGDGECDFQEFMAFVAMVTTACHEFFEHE

S100A1-1 = molecular target: T2, S100A1-1 (human, UniProt P23297 1-94); assay: Y2H, baits tested against each other
T2 construct: Full-length bait; also called full length S100A1
T2 sequence (looked up): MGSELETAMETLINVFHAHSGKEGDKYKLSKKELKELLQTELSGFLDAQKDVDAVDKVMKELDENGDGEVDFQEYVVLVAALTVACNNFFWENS

[1] = molecular target: the molecule itself; assay: Y2H, baits tested against each other
[2] = molecular target: T3, S100A9 (Genbank ID: M26311) (human, UniProt P06702 1-114); assay: Y2H 1x1 mating, binder AD fusion, target BD fusion
T3 construct: range 1-114; Prey from liver and muscle libraries
T3 sequence (looked up): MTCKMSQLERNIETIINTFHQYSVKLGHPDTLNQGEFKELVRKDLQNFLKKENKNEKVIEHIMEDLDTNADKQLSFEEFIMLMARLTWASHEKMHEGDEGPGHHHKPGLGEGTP

[3] = molecular target: S100A6 (Genbank ID: M14300) (human, UniProt P06703 1-90); assay: Y2H 1x1 mating, binder AD fusion, target BD fusion
[4] = molecular target: T4, STAU (Genbank ID: AF061939) (human, UniProt O95793 6-577); assay: Y2H 1x1 mating, binder AD fusion, target BD fusion
T4 construct: range 6-578; Prey from brain library; also called Staufen
T4 sequence (looked up): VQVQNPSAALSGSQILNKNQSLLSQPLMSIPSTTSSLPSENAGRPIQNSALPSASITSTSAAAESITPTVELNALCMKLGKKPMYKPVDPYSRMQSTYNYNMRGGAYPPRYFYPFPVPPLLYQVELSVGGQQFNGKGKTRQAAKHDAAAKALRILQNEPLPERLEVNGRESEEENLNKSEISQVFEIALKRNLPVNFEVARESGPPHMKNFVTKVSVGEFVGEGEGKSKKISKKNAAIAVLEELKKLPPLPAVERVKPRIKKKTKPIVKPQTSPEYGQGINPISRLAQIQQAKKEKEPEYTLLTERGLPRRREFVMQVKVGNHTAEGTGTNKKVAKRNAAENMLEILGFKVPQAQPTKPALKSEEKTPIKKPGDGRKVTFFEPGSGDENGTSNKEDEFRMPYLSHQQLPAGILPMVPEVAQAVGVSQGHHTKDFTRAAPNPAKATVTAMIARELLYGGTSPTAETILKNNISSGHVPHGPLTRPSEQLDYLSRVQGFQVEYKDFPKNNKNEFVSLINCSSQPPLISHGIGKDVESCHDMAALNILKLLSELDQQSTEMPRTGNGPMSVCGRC

[5] = molecular target: the molecule itself; assay: Y2H 1x1 mating, binder AD fusion, target BD fusion

Measured: binding result

B1: S100B-2 (other, human, UniProt P04271 1-62, looked up)
chain: MSELEKAMVALIDVFHQYSGREGDKHKLKKSELKELINNELSHFLEEIKEQEVVDKVMETLD
notes: Truncated bait; also called truncated S100B
not listed: [4] | [5]
no binding: all other assays above

B2: PPP1R5 (Genbank ID: Y18207) (other, human, UniProt Q9UQK1 1-317, looked up)
chain: MSCTRMIQVLDPRPLTSSVMPVDVAMRLCLAHSPPVKSFLGPYDEFQRRHFVNKLKPLKSCLNIKHKAKSQNDWKCSHNQAKKRVVFADSKGLSLTAIHVFSDLPEEPAWDLQFDLLDLNDISSALKHHEEKNLILDFPQPSTDYLSFRSHFQKNFVCLENCSLQERTVTGTVKVKNVSFEKKVQIRITFDSWKNYTDVDCVYMKNVYGGTDSDTFSFAIDLPPVIPTEQKIEFCISYHANGQVFWDNNDGQNYRIVHVQWKPDGVQTQMAPQDCAFHQTSPKTELESTIFGSPRLASGLFPEWQSWGRMENLASYR
notes: Prey from brain, liver and muscle libraries
no binding: [4] | [5]
